Source: patent US20020061531, “Detection of binding factors with fluorescence polarization” (published 2002)
Read-outs that look alike come from different tables or passages of the source.

Experiments:
SSB protein [1] = biological target: T1, SSB protein (UniProt P0AGE0 P0AGE0:2-178); assay: FP; 1:1 complex; mobility and anisotropy gave similar values; 2:1 complex also seen; A=0.23; details: tags: Sigma; unlabeled; chain copies: tetramer (stated); label: fluorescein
[2] = biological target: MMLV reverse transcriptase (Moloney murine leukemia virus, UniProt P03355 P03355:660-1330)
[3] = biological target: T2, HIV-1 reverse transcriptase (p66/p51) (Human immunodeficiency virus 1, UniProt P04585;P04585 P04585:588-1147,P04585:588-1027)
SSB protein [4] = biological target: T1, SSB protein; assay: FP; CE/LIFP anisotropy 0.05 to 0.25; 25 mM Na2B4O7 pH 9.1; details: tags: Sigma; unlabeled; chain copies: tetramer (stated); label: fluorescein
SSB protein [5] = biological target: T1, SSB protein; assay: CE mobility; 25 mM Na2B4O7 pH 9.1, SSB in running buffer; Hill fit; details: tags: Sigma; unlabeled; chain copies: tetramer (stated); label: fluorescein
[6] = biological target: SSB protein, FITC-labeled (UniProt P0AGE0 P0AGE0:2-178); assay: CE mobility shift of FITC-SSB, anisotropy change only ~0.02; pH 9.1; details: tags: FITC (5.3 dye per protein), Sigma; chain copies: tetramer (stated)
Chain of SSB protein, FITC-labeled (P0AGE0 2-178, one chain of several): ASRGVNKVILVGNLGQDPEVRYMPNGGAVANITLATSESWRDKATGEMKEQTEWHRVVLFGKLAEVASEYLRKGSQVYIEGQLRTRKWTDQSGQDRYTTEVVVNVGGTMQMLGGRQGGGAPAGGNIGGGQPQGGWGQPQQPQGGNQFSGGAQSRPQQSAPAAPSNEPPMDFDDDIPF

trp repressor = trp repressor (Escherichia coli, UniProt P0A881 P0A881:2-108); assay: FP; CE/LIFP polarization 0.11 free to 0.25 with repressor; trp binding buffer pH 7.6
[7] = biological target: T2, HIV-1 reverse transcriptase (p66/p51); assay: CE/LIF; two complex peaks; lower binding constant than RT 26; 1xTBE; details: tags: Worthington Biochemicals; chain copies: heterodimer (stated)

T1 sequence (P0AGE0 2-178, one chain of several): as above

B1: F-37-mer (ssDNA)
DNA: CCTTAAGCTTCCTCAACCACTTACCATACTCGAGATT
Which Ka (SSB protein [1]) does the source give for B1 here?
Its Ka is ~2e+07 M⁻¹.

B2: RT 26 aptamer (ssDNA)
DNA: ATCCGCCTGATTAGCGATACTTACGTGAGCGTGCTGTCCCCTAAAGGTGATACGTCACTTGAGCAAAATCACCTGCAGGGG
What does the source list for B2?
binding result [2]: no binding; binding result [3]: binds

B3: F-11-mer (ssDNA)
DNA: CGCGATACGCC
How did the Ka (SSB protein [4]) turn out when B3 was run?
Its Ka is ~5e+06 M⁻¹.

What about the Ka (SSB protein [5]) of the same binder?
The Ka was ~4.4e+06 M⁻¹.

B4: d(pT)18 (ssDNA)
DNA: TTTTTTTTTTTTTTTTTT
Does B4 bind [6]?
Result: binds

B5: trp operator 25 bp (dsDNA)
DNA 1: ATCGAACTAGTTAACTAGTACGCAA
DNA 2: TTGCGTACTAGTTAACTAGTTCGAT
Does B5 bind (trp repressor)?
Result: binds

B6: RT 12 aptamer (ssDNA)
DNA: ATCTACTGGATTAGCGATACTCGATTAGGTCCCCTGCCGCTAAACCATACCGCGGTAACTTGAGCAAAATCACCACTGCAGGGG
Does B6 bind [7]?
Result: binds
